Patent US20240261333A1, “NOVEL TARGETS FOR ENHANCING ANTI-TUMOR IMMUNITY” (THE BROAD INSTITUTE, INC., priority 2021, published 2024)

Legend:
KCTD5 (human) = KCTD5 (human) (UniProt Q9NXV2); assay: co-IP with anti-FLAG, N-FLAG B3GNT2, mass spectrometry
COPA (human) = COPA (human) (UniProt P53621); assay: as above
TELO2 (human) = TELO2 (human) (UniProt Q9Y4R8); assay: as above
XPO1 (human) = XPO1 (human) (UniProt O14980); assay: as above
RPL28 (human) = RPL28 (human) (UniProt P46779); assay: as above
[1] = molecular target: P0AA25.2 [thioredoxin: P0AA25]; assay: as above
Sequence of P0AA25.2 [thioredoxin: P0AA25] (P0AA25 2-109): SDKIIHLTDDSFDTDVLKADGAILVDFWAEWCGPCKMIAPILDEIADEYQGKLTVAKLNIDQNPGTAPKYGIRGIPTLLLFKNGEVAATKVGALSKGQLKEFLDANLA

MMS19 (human) = MMS19 (human) (UniProt Q96T76); assay: as above
RHOT2 (human) = RHOT2 (human) (UniProt Q8IXI1); assay: as above
Sequence of RHOT2 (human) (Q8IXI1 whole entry): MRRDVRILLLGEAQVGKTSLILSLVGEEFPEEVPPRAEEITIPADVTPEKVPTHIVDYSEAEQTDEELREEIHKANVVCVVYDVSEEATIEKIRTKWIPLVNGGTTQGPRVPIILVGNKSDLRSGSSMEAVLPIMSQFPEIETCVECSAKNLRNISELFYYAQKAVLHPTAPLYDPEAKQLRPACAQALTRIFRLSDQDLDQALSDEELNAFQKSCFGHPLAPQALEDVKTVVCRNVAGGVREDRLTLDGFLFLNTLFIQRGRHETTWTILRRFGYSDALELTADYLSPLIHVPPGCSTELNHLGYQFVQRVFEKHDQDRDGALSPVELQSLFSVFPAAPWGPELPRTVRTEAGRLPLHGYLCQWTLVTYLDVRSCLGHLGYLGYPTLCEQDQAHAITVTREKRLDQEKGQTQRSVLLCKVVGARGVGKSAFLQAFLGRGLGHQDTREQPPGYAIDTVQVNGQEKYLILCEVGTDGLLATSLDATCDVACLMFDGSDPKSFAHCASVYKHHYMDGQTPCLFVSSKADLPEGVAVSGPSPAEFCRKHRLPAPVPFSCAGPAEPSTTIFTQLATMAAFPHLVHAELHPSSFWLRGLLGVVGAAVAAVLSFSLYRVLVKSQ

PPFIBP1 (human) = PPFIBP1 (human) (UniProt Q86W92); assay: as above
HBB (human) = HBB (human) (UniProt P68871); assay: as above
RPS27A (human) = RPS27A (human) (UniProt P62979); assay: as above
CPT1A (human) = CPT1A (human) (UniProt P50416); assay: as above
Sequence of CPT1A (human) (P50416 other isoform, or with tags, fused parts or gaps limits assumed): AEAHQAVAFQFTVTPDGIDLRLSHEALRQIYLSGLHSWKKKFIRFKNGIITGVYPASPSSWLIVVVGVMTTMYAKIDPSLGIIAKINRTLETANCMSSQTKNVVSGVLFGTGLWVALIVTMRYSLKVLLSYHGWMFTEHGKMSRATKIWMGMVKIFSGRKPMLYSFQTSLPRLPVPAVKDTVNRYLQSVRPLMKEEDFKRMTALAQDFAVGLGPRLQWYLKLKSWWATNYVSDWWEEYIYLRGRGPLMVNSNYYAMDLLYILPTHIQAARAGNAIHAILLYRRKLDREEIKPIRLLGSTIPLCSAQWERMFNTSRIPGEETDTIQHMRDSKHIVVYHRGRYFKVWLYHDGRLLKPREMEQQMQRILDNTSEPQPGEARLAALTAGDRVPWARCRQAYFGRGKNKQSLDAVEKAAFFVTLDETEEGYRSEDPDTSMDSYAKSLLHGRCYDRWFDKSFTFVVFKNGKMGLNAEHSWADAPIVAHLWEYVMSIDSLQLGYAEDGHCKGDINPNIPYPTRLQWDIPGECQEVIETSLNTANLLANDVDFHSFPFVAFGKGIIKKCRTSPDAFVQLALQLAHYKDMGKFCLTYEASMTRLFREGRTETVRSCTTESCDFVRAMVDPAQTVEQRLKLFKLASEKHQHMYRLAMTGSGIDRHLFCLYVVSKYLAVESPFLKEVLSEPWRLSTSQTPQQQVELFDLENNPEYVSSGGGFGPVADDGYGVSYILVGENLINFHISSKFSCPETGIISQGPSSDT

SERPINB3 (human) = SERPINB3 (human) (UniProt P29508); assay: as above
MAP4 (human) = MAP4 (human) (UniProt P27816); assay: as above
SYNPO (human) = SYNPO (human) (UniProt Q8N3V7); assay: as above
HNRNPH1 (human) = HNRNPH1 (human) (UniProt P31943); assay: as above
RPL5 = RPL5 (UniProt P46777); assay: co-IP, IgG control, C-FLAG B3GNT2 cell lysate, mass spectrometry
SSRP1 = SSRP1 (UniProt Q08945); assay: as above
Sequence of SSRP1 (Q08945 2-709 limits assumed): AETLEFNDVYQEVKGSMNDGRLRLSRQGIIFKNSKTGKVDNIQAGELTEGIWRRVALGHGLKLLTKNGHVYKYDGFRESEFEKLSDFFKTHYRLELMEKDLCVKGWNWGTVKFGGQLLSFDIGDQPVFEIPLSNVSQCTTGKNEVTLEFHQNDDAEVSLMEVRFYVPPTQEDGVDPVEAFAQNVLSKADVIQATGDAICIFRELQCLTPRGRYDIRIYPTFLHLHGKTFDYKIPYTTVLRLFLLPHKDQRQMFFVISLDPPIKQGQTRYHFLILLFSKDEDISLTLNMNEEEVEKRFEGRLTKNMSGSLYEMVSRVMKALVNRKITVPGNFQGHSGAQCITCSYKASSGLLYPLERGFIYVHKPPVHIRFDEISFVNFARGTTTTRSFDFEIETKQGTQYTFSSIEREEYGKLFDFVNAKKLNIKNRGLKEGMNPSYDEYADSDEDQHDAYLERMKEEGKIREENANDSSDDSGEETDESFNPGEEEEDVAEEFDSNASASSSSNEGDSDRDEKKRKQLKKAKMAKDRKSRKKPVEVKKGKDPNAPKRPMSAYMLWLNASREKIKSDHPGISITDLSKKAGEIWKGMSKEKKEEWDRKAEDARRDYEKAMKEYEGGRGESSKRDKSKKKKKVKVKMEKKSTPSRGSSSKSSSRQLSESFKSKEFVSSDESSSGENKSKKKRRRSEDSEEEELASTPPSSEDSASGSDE

RPL3 = RPL3 (UniProt P39023); assay: as above
RPS18 = RPS18 (UniProt P62269); assay: as above
CFL1 = CFL1 (UniProt P23528); assay: as above
RPL22 = RPL22 (UniProt P35268); assay: as above
HSPB1 = HSPB1 (UniProt P04792); assay: as above
MTDH = MTDH (UniProt Q86UE4); assay: as above
RPL19 = RPL19 (UniProt P84098); assay: as above
TAGLN = TAGLN (UniProt Q01995); assay: as above
Sequence of TAGLN (Q01995 2-201 limits assumed): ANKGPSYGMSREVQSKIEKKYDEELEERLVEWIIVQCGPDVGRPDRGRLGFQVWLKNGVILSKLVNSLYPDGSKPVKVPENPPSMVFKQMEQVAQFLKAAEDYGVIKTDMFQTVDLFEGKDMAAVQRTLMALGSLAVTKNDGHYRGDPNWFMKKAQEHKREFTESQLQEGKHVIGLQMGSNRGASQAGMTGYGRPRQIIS

POF1B = POF1B (UniProt Q8WVV4); assay: as above
Sequence of POF1B (Q8WVV4 other isoform, or with tags, fused parts or gaps limits assumed): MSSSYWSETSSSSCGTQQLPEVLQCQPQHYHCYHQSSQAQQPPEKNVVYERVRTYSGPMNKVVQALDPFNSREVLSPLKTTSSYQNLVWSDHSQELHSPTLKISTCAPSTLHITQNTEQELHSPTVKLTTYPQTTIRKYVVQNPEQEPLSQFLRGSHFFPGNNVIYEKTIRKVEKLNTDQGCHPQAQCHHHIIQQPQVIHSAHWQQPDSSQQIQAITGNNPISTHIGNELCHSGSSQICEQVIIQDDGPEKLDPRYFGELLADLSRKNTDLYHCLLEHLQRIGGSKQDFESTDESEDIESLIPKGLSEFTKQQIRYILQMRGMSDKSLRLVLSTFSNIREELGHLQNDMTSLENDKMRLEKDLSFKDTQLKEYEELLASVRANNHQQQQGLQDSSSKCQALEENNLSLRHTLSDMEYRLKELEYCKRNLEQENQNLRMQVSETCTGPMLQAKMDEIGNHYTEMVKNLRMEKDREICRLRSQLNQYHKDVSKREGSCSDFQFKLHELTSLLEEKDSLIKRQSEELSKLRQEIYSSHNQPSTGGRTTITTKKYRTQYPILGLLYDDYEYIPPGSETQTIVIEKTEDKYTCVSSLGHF

TXN = TXN (UniProt P10599); assay: as above
Sequence of TXN (P10599 2-105 limits assumed): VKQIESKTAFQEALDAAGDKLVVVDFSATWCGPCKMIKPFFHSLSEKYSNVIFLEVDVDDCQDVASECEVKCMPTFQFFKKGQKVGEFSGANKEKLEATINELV

ITGB3 = ITGB3 (UniProt P05106); assay: as above
RPS2 = RPS2 (UniProt P15880); assay: as above
TMEM59 = TMEM59 (UniProt Q9BXS4); assay: as above
HIST1H1E = HIST1H1E (UniProt P10412); assay: as above
EIF4G1 = EIF4G1 (UniProt Q04637); assay: as above
PSMA7 = PSMA7 (UniProt O14818); assay: as above
HNRNPU = HNRNPU (UniProt Q00839); assay: as above
SRSF1 = SRSF1 (UniProt Q07955); assay: as above
EMD = EMD (UniProt P50402); assay: as above
TNKS1BP1 = TNKS1BP1 (UniProt Q9C0C2); assay: as above
SRSF3 = SRSF3 (UniProt P84103); assay: as above
CDSN = CDSN (UniProt Q15517); assay: as above
Sequence of CDSN (Q15517 33-529 limits assumed): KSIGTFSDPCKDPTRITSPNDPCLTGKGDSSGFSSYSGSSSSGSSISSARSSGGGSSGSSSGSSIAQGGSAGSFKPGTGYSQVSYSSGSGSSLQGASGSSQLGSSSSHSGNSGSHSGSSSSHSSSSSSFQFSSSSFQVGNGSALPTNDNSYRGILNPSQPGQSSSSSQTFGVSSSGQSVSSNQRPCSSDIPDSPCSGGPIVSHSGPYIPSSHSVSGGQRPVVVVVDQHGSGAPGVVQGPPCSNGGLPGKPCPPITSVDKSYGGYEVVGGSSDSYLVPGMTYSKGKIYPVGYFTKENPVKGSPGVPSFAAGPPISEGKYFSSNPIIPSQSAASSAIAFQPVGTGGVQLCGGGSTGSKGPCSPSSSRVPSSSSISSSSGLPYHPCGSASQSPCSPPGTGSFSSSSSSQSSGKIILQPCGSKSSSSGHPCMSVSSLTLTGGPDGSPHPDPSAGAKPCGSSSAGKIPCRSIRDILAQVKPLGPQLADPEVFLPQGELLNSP

MTCH2 = MTCH2 (UniProt Q9Y6C9); assay: as above

Sequence of XPO1 (human) (O14980 whole entry): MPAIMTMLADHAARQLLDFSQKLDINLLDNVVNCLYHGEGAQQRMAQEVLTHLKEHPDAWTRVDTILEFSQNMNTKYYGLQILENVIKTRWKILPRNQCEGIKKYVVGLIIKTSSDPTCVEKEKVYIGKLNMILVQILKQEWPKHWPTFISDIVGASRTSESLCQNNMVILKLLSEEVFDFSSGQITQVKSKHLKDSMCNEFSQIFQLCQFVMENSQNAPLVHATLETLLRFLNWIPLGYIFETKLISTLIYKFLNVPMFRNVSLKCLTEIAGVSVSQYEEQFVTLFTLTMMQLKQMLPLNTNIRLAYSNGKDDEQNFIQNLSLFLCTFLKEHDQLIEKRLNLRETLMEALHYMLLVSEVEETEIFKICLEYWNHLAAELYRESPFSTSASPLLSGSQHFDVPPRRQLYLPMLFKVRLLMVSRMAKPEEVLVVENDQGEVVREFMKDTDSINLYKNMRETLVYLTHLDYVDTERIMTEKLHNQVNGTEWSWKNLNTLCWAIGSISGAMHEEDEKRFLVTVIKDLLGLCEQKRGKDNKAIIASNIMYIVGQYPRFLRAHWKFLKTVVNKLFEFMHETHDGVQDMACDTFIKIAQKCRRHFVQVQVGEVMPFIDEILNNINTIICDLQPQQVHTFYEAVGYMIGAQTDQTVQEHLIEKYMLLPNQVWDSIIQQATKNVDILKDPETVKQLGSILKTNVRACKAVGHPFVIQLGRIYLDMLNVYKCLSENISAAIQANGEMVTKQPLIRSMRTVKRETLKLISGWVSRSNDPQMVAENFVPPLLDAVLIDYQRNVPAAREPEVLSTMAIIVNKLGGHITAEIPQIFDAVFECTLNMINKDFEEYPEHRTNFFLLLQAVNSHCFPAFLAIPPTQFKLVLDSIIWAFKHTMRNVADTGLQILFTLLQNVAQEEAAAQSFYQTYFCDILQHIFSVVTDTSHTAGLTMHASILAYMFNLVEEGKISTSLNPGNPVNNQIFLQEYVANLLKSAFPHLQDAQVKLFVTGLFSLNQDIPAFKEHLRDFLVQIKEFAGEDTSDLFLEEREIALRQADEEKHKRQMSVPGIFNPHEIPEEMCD
Sequence of KCTD5 (human) (Q9NXV2 2-234 limits assumed): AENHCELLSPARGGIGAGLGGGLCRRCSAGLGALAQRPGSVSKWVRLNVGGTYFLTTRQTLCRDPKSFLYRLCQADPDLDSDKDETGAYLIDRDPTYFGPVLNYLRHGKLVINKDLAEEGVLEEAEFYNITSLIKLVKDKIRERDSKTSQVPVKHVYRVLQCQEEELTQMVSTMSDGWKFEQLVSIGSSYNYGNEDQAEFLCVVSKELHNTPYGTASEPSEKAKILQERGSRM

N-terminal FLAG tagged B3GNT2 (from UniProt Q9NY97 1-397) (enzyme)
co-IP mass spectrometry count (KCTD5 (human)): 2 | co-IP/MS count, N-term FLAG (COPA (human)): 2 | co-IP mass spectrometry count (TELO2 (human)): 2 | co-IP/MS count, N-term FLAG (XPO1 (human)): 2 | co-IP mass spectrometry count (RPL28 (human)): 8 | co-IP/MS count, N-term FLAG [1]: 7 | co-IP/MS count, N-term FLAG (MMS19 (human)): 4 | co-IP mass spectrometry count (RHOT2 (human)): 3 | co-IP mass spectrometry count (PPFIBP1 (human)): 2 | co-IP/MS count, N-term FLAG (HBB (human)): 4 | co-IP mass spectrometry count (RPS27A (human)): 8 | co-IP/MS count, N-term FLAG (CPT1A (human)): 2 | co-IP mass spectrometry count (SERPINB3 (human)): 10 | co-IP mass spectrometry count (MAP4 (human)): 0 | co-IP mass spectrometry count (SYNPO (human)): 4 | co-IP/MS count, N-term FLAG (HNRNPH1 (human)): 11

IgG control (Millipore Sigma 12-371) (antibody)
co-IP mass spectrometry count (RPL5): 0 | co-IP mass spectrometry count (SSRP1): 0 | co-IP mass spectrometry count (RPL3): 5 | co-IP mass spectrometry count (RPS18): 9 | co-IP mass spectrometry count (CFL1): 3 | co-IP mass spectrometry count (RPL22): 0 | co-IP mass spectrometry count (HSPB1): 0 | co-IP mass spectrometry count (MTDH): 0 | co-IP mass spectrometry count (RPL19): 2 | co-IP mass spectrometry count (TAGLN): 0 | co-IP mass spectrometry count (POF1B): 0 | co-IP mass spectrometry count (TXN): 0 | co-IP mass spectrometry count (ITGB3): 0 | co-IP mass spectrometry count (RPS2): 12 | co-IP mass spectrometry count (TMEM59): 0 | co-IP mass spectrometry count (HIST1H1E): 0 | co-IP mass spectrometry count (EIF4G1): 2 | co-IP mass spectrometry count (PSMA7): 0 | co-IP mass spectrometry count (HNRNPU): 0 | co-IP mass spectrometry count (SRSF1): 3 | co-IP mass spectrometry count (EMD): 2 | co-IP mass spectrometry count (TNKS1BP1): 2 | co-IP mass spectrometry count (SRSF3): 3 | co-IP mass spectrometry count (CDSN): 0 | co-IP mass spectrometry count (MTCH2): 0
